Results as given in patent publication US8530168B2, “Fusion protein comprising a Caspase domain and a nuclear hormone receptor binding domain and methods and uses thereof” (Helmholtz Zentrum Munich Deutsches Forschungszentrum fuer …, priority 2007, dated 2013).

Assays:
[1] = system: M5/N9 cells expressing myrCasp8-ER(T2); test: Ligand dose response, MTT assay, in cells expressing myrCasp8-ER(T2); format: cell-based, murine; conditions: 48 hours, data not shown
Experimental: (b) Transient cotransfection of a β-galactosidase reporter with a Cre-ER(T2), myrCasp8-ER(T2), or Casp9-ER(T2) expression plasmid into murine M5/N9 (black columns), human HeLa (grey columns) or zebrafish Pac2 (open columns) cells. 12 h following transfection, cells were cultured for 36 h with 4-OH-tamoxifen at 10^−8 M and the activity of β-galactosidase in cell lysates was determined. Values obtained from transfections of the Cre-ER(T2) vector were defined as reference.
To quantify 4-OH-tamoxifen-inducible cell death, we applied the colorimetric MTT assay (Mossman, J. Immunol. Methods, 65, 55 (1983)) allowing the quantification of cell survival. Cells (4·10^3) were plated on 96-well plates. The assay was carried out in three replicas for each sample treated with and without 4-OH-tamoxifen. After 12 h, medium was replaced either with fresh medium or with medium supplemented with 10^−8 M 4-OH-tamoxifen. […] The crystals were dissolved in 150 μl 0.04 N HCl/isopropanol to give a homogeneous blue solution suitable for absorbance measurement at a wavelength of 570 nm on the Synergy™ HT Multi-Detection Microplate Reader (BioTek).
Cell viability was determined following 48 hours of incubation with the respective ligand at concentrations ranging from 10^−6 M to 10^−12 M by using the MTT assay. […]

MEF5/N9 cells [2] = test: Visible phenotypic changes / viability of stably transfected MEF5/N9 clones on 4-OH-tamoxifen treatment; format: cell-based, mouse; conditions: 10^−8 M 4-OH-tamoxifen, 24 h
Experimental: (§1) To generate stably transfected MEF5/N9 cells, 2·10^6 cells were coelectroporated with 32 μg ER(T2) fusion plasmid DNA linearised with ScaI and 8 μg pPgk-hygro-pA plasmid DNA linearised with XhoI and plated into two 96-well plates. The cells were grown in DMEM medium (Invitrogen) supplemented with 2 mM Glutamine and 10% fetal calf serum at 37° C., 5% CO2 in humid atmosphere, and passaged upon trypsinization. Two days after transfection the medium was supplemented with 250 U/ml of hygromycin (Calbiochem) for the selection of stable integrants. Upon the growth of resistant colonies these were individually expanded in the presence of hygromycin.
To examine 4-OH-tamoxifen-dependent cell death, 1·10^5 MEF5/N9 cells expressing ER(T2) fusion proteins were plated into each well of a six-well plate. The following day, for each sample the medium in two of four individual wells were replaced with medium supplemented with 10^−8 M 4-hydroxy-tamoxifen. 24 hours after induction with 4-OH-tamoxifen, cells were photographed through a Leica DMI6000B fluorescence microscope with phase contrast either at 10-fold or 20-fold magnification.
Since the responsiveness of the clones, transfected with the same construct, to 4-OH-tamoxifen differed only slightly from each other, only the results obtained from one clone for each construct are shown in the figure.

MEF5/N9 cells [3] = test: Transient cotransfection of ER(T2) fusion expression vectors with β-galactosidase reporter; β-galactosidase activity in lysates; format: cell-based, mouse; conditions: 10^−8 M 4-OH-tamoxifen, 48 h; relative to Cre-ER(T2) without 4-OH-tamoxifen
Experimental: The transformed mouse embryonic fibroblast cell line MEF5/N9 (Schwenk et al., Nucleic Acids Research, 26(6) 1427-1432 (1998)) was obtained from Michel Aguet (University of Zurich, Switzerland). The cells were grown in DMEM medium (Life Technologies) supplemented with 2 mM […] and 10% fetal calf serum at 37° C., 5% CO2 in humid atmosphere and passaged upon trypsinization. One day before transient transfection 4·10^4 cells were plated into a 24-well plate (Falcon). For the transient transfection of MEF5/N9 cells with plasmids, each well received into 500 μl of medium a total amount of 150 ng or 200 ng supercoiled plasmid DNA complexed before with the FuGene6 transfection reagent (Roche Diagnostics GmbH, Mannheim, Germany) according to the manufacturer's protocol. Each 150 ng or 200 ng DNA preparation (FIG. 2 sample 1 to 11) contained 100 ng of the β-Galactosidase expression vector pCMV-β-gal-pA (pCMVβ, Clontech, FIG. 1G, SEQ ID NO: 56), and 100 ng of the fusion ER(T2) expression vectors to be tested (FIG. 2 sample 3-7, 10-11) and the control plasmids (FIG. 2 sample 1-3), except for the samples with the plasmids pCAG-Casp9full-ER(T2)-bpA (FIG. 2 sample 8) and pCAG-Casp9trunc-ER(T2)-bpA (FIG. 2 sample 9), respectively, that received 50 ng of the test vector. For each sample to be tested four individual wells were transfected. Five hours after the addition of the DNA preparations each well received additional 500 μl of growth medium. The following day, the medium of two wells of each sample was replaced by fresh medium. The other two wells received medium containing 10^−8 M 4-hydroxy-tamoxifen (Sigma). 48 hours after induction with 4-OH-tamoxifen, the cells of each well were lysed with 200 μl lysate reagent supplemented with protease inhibitors (Roche Diagnostics GmbH). The lysates were centrifuged and 50 μl were used to determine the β-galactosidase activities using the β-galactosidase reporter gene assay (Roche Diagnostics GmbH) according to the manufacturer's protocol in a microplate luminometer (Berthold Detection Systems GmbH). The mean value and standard deviation of the samples was calculated from the β-galactosidase RLU values obtained from the two transfected wells of each sample. The relative β-galactosidase activity was obtained by comparison to the negative control (pCAG-Cre-ER(T2)-bpA) without 4-OH-tamoxifen.
To investigate the cell death effect of the different ER(T2) fusion constructs quantitatively, we performed transient cotransfections of the ER(T2) fusion protein expression vectors together with a fixed amount of a reporter plasmid coding for β-galactosidase in MEF5/N9 fibroblast cells. Transfected cells were treated 12 hours after transfection with 4-OH-tamoxifen at a concentration of 10^−8 M. Following 48 hours of 4-OH-tamoxifen induction, the cells from the various samples were lysed and the activity of β-galactosidase in the lysates was determined by a chemiluminescence assay and expressed in “Relative Light Units” (RLU) (FIG. 2). As positive controls for 4-OH-tamoxifen-inducible cell death, we prepared samples transfected with the constructs pCAG-HAFas-ER(T2) or pCAG-MFas-ER(T2) together with the reporter plasmid and treatment with 4-OH-tamoxifen. As negative control for this assay served samples which received the reporter plasmid together with the expression vector pCAG-Cre-ER(T2) and that were treated with 4-OH-tamoxifen.
To determine the relative activity of the tested ER(T2) fusion constructs inducing apoptosis in the presence of 4-OH-tamoxifen, the RLU values of β-galactosidase activity were divided individually for each sample by the RLU value obtained from the sample which received the plasmid pCAG-Cre-ER(T2) but was not treated with 4-OH-tamoxifen (defined as negative control). The relative activity of the tested Caspase- or bax-ER(T2) fusion proteins was then compared to the negative control for 4-OH-tamoxifen-dependent cell death defined as an activity of 1.

MEF5/N9 cells [4] = test: as above; format: cell-based, mouse; conditions: no 4-OH-tamoxifen; transient transfection 50 or 100 ng vector; relative to Cre-ER(T2) without 4-OH-tamoxifen
MEF5/N9 cells [5] = test: MTT cytotoxicity assay of stably transfected MEF5/N9 clones; format: cell-based, mouse; conditions: 10^−8 M 4-OH-tamoxifen, 48 h
Experimental: as §1
To quantify 4-OH-tamoxifen-inducible cell death, we applied the colorimetric MTT assay (Mossman, J. Immunol. Methods, 65, 55 (1983)) allowing the quantification of cell survival. Cells (4·10^3) were plated on 96-well plates. The assay was carried out in three replicas for each sample treated with and without 4-OH-tamoxifen. After 12 h, medium was replaced either with fresh medium or with medium supplemented with 10^−8 M 4-OH-tamoxifen. Following 48 h of 4-OH-tamoxifen treatment, sterile filtered MTT reagent in PBS (Sigma) was added at the concentration of 0.5 mg/ml. Incubation occurred for 4 hours at 37° C. With ongoing reaction time, dark violet MTT formazan crystals appeared on the bottom of the wells containing living cells. The crystals were dissolved in 150 μl 0.04 N HCl/isopropanol to give a homogeneous blue solution suitable for absorbance measurement at a wavelength of 570 nm on the Synergy™ HT Multi-Detection Microplate Reader (BioTek).

Molecule	ligand concentration required to induce cell death [1]	4-OH-tamoxifen-dependent cell death, phenotype of stable clones (MEF5/N9 cells [2])	relative β-galactosidase activity in presence of 4-OH-tamoxifen compared to the negative control (MEF5/N9 cells [3]) [%]	basal toxicity: relative β-galactosidase activity compared to the negative control in absence of 4-OH-tamoxifen (MEF5/N9 cells [4]) [%]	cell viability in the presence of 4-OH-tamoxifen (MTT) (MEF5/N9 cells [5])
C[C@]12CC[C@@H]3c4ccc(O)cc4CC[C@H]3[C@@H]1CC[C@@H]2O [E2, 17-β-estradiol]	≥ 10^−7 M	–	–	–	–
HAFas-ER(T2): HA epitope, transmembrane and intracellular domain of murine Fas (135-305) fused to ER(T2); planned positive control (protein, fusion protein HAFas-ER(T2), planned positive control) MGYPYDVPDYATSNTNCRKQSPRNRLWLLTILVLLIPLVFIYRKYRKRKCWKRRQDDPESRTSSRETIPMNASNLSLSKYIPRIAEDMTIQEAKKFARENNIKEGKIDEIMHDSIQDTAEQKVQLLLCWYQSHGKSDAYQDLIKGLKKAECRRTLDKFQDMVQKDLGKSTPDTGNENEGQCLVEPSAGDMRAANLWPSPLMIKRSKKNSLALSLTADQMVSALLDAEPPILYSEYDPTRPFSEASMMGLLTNLADRELVHMINWAKRVPGFVDLTLHDQVHLLECAWLEILMIGLVWRSMEHPVKLLFAPNLLLDRNQGKCVEGMVEIFDMLLATSSRFRMMNLQGEEFVCLKSIILLNSGVYTFLSSTLKSLEEKDHIHRVLDKITDTLIHLMAKAGLTLQQQHQRLAQLLLILSHIRHMSNKGMEHLYSMKCKNVVPLYDLLLEAADAHRLHAPTSRGGASVEETDQSHLATAGSTSSHSLQKYYITGEAEGFPATA	–	not affected by the treatment with 4-OH-tamoxifen	23	52	not affected by treatment with 4-OH-tamoxifen
MFas-ER(T2): membrane-targeting signal peptide, transmembrane and intracellular domain of murine Fas fused to ER(T2); planned positive control (protein, fusion protein MFas-ER(T2), membrane-targeting signal peptide, transmembrane and intracellular domain of murine Fas fused to ER(T2); planned positive control) MLWIWAVLPLVLAGSQLRVHTTSNTNCRKQSPRNRLWLLTILVLLIPLVFIYRKYRKRKCWKRRQDDPESRTSSRETIPMNASNLSLSKYIPRIAEDMTIQEAKKFARENNIKEGKIDEIMHDSIQDTAEQKVQLLLCWYQSHGKSDAYQDLIKGLKKAECRRTLDKFQDMVQKDLGKSTPDTGNENEGQCLVEPSAGDMRAANLWPSPLMIKRSKKNSLALSLTADQMVSALLDAEPPILYSEYDPTRPFSEASMMGLLTNLADRELVHMINWAKRVPGFVDLTLHDQVHLLECAWLEILMIGLVWRSMEHPVKLLFAPNLLLDRNQGKCVEGMVEIFDMLLATSSRFRMMNLQGEEFVCLKSIILLNSGVYTFLSSTLKSLEEKDHIHRVLDKITDTLIHLMAKAGLTLQQQHQRLAQLLLILSHIRHMSNKGMEHLYSMKCKNVVPLYDLLLEAADAHRLHAPTSRGGASVEETDQSHLATAGSTSSHSLQKYYITGEAEGFPATA	–	not affected by the treatment with 4-OH-tamoxifen	26	60	not affected by treatment with 4-OH-tamoxifen
